Assay results as given in patent US20140348819A1, “Methods of Treating Cancer” (Dana-Farber Cancer Institute, Inc., priority 2011, published 2014).

Test system: six V600E BRAF melanoma cell lines
Test: Screening of recombinant RTK ligands for ability to confer resistance to BRAFi (PLX4720) or MEKi (PD184352) (Table 4)
Format: cell-based, human
Design: ability of recombinant RTK ligand to confer resistance / ability of recombinant RTK ligand to confer resistance (screening value): scale not given here
Method: HGF is the only one that can substantially confer drug resistance to the cell lines.
The complexity of the tumor microenvironment is much greater than an in vitro co-culture system. Therefore, the inventors explored whether the activation of other RTKs could result in a similar resistance as that observed with the activation of MET. To this end, six V600E BRAF melanoma cell lines were tested for their resistance to either BRAFi (PLX4720) or MEKi (PD184352) after the addition of 22 RTK ligands that have the potential of activating almost all known RTKs. […] The activation of a selected subset of these RTKs was confirmed by western blotting and by high throughput tyrosine kinase phosphorylation profiling.

B1: Wnt1 (protein, UniProt P04628 28-370, looked up)
Proto-oncogene Wnt-1: ANSSGRWWGIVNVASSTNLLTDSKSLQLVLEPSLQLLSRKQRRLIRQNPGILHSVSGGLQSAVRECKWQFRNRRWNCPTAPGPHLFGKIVNRGCRETAFIFAITSAGVTHSVARSCSEGSIESCTCDYRRRGPGGPDWHWGGCSDNIDFGRLFGREFVDSGEKGRDLRFLMNLHNNEAGRTTVFSEMRQECKCHGMSGSCTVRTCWMRLPTLRAVGDVLRDRFDGASRVLYGNRGSNRASRAELLRLEPEDPAHKPPSPHDLVYFEKSPNFCTYSGRLGTAGTAGRACNSSSPALDGCELLCCGRGHRTRTQRVTERCNCTFHWCCHVSCRNCTHTRVLHECL
ability of recombinant RTK ligand to confer resistance (screening value) (A2058, PD184352 - 1 uM, ligand 0.4 ng/ml): 1.04
ability of recombinant RTK ligand to confer resistance (screening value) (A2058, PD184352 - 1 uM, ligand 1.6 ng/ml): 0.99
ability of recombinant RTK ligand to confer resistance (screening value) (A2058, PD184352 - 1 uM, ligand 6.25 ng/ml): 0.86
ability of recombinant RTK ligand to confer resistance (screening value) (A2058, PD184352 - 1 uM, ligand 25 ng/ml): 0.98
ability of recombinant RTK ligand to confer resistance (screening value) (A2058, PD184352 - 1 uM, ligand 100 ng/ml): 1.04
ability of recombinant RTK ligand to confer resistance (screening value) (A2058, PLX4720 - 2 uM, ligand 0.4 ng/ml): 1.04
ability of recombinant RTK ligand to confer resistance (screening value) (A2058, PLX4720 - 2 uM, ligand 1.6 ng/ml): 1.00
ability of recombinant RTK ligand to confer resistance (screening value) (A2058, PLX4720 - 2 uM, ligand 6.25 ng/ml): 1.01
ability of recombinant RTK ligand to confer resistance (screening value) (A2058, PLX4720 - 2 uM, ligand 25 ng/ml): 0.98
ability of recombinant RTK ligand to confer resistance (screening value) (A2058, PLX4720 - 2 uM, ligand 100 ng/ml): 1.07
ability of recombinant RTK ligand to confer resistance (screening value) (C32, PD184352 - 1 uM, ligand 0.4 ng/ml): 1.06
ability of recombinant RTK ligand to confer resistance (screening value) (C32, PD184352 - 1 uM, ligand 1.6 ng/ml): 0.96
ability of recombinant RTK ligand to confer resistance (screening value) (C32, PD184352 - 1 uM, ligand 6.25 ng/ml): 1.11
ability of recombinant RTK ligand to confer resistance (screening value) (C32, PD184352 - 1 uM, ligand 25 ng/ml): 1.02
ability of recombinant RTK ligand to confer resistance (screening value) (C32, PD184352 - 1 uM, ligand 100 ng/ml): 1.05
ability of recombinant RTK ligand to confer resistance (screening value) (C32, PLX4720 - 2 uM, ligand 0.4 ng/ml): 1.13
ability of recombinant RTK ligand to confer resistance (screening value) (C32, PLX4720 - 2 uM, ligand 1.6 ng/ml): 1.00
ability of recombinant RTK ligand to confer resistance (screening value) (C32, PLX4720 - 2 uM, ligand 6.25 ng/ml): 1.03
ability of recombinant RTK ligand to confer resistance (screening value) (C32, PLX4720 - 2 uM, ligand 25 ng/ml): 1.01
ability of recombinant RTK ligand to confer resistance (screening value) (C32, PLX4720 - 2 uM, ligand 100 ng/ml): 0.95
ability of recombinant RTK ligand to confer resistance (screening value) (Colo 829, PD184352 - 1 uM, ligand 0.4 ng/ml): 0.94
ability of recombinant RTK ligand to confer resistance (screening value) (Colo 829, PD184352 - 1 uM, ligand 1.6 ng/ml): 0.93
ability of recombinant RTK ligand to confer resistance (screening value) (Colo 829, PD184352 - 1 uM, ligand 6.25 ng/ml): 0.91
ability of recombinant RTK ligand to confer resistance (screening value) (Colo 829, PD184352 - 1 uM, ligand 25 ng/ml): 0.85
ability of recombinant RTK ligand to confer resistance (screening value) (Colo 829, PD184352 - 1 uM, ligand 100 ng/ml): 0.89
ability of recombinant RTK ligand to confer resistance (screening value) (Colo 829, PLX4720 - 2 uM, ligand 0.4 ng/ml): 0.94
ability of recombinant RTK ligand to confer resistance (screening value) (Colo 829, PLX4720 - 2 uM, ligand 1.6 ng/ml): 0.92
ability of recombinant RTK ligand to confer resistance (screening value) (Colo 829, PLX4720 - 2 uM, ligand 6.25 ng/ml): 0.93
ability of recombinant RTK ligand to confer resistance (screening value) (Colo 829, PLX4720 - 2 uM, ligand 25 ng/ml): 0.06
ability of recombinant RTK ligand to confer resistance (screening value) (Colo 829, PLX4720 - 2 uM, ligand 100 ng/ml): 0.93
ability of recombinant RTK ligand to confer resistance (screening value) (G-361, PD184352 - 1 uM, ligand 0.4 ng/ml): 0.99
ability of recombinant RTK ligand to confer resistance (screening value) (G-361, PD184352 - 1 uM, ligand 1.6 ng/ml): 1.00
ability of recombinant RTK ligand to confer resistance (screening value) (G-361, PD184352 - 1 uM, ligand 6.25 ng/ml): 0.93
ability of recombinant RTK ligand to confer resistance (screening value) (G-361, PD184352 - 1 uM, ligand 25 ng/ml): 0.96
ability of recombinant RTK ligand to confer resistance (screening value) (G-361, PD184352 - 1 uM, ligand 100 ng/ml): 0.93
ability of recombinant RTK ligand to confer resistance (screening value) (G-361, PLX4720 - 2 uM, ligand 0.4 ng/ml): 0.94
ability of recombinant RTK ligand to confer resistance (screening value) (G-361, PLX4720 - 2 uM, ligand 1.6 ng/ml): 0.97
ability of recombinant RTK ligand to confer resistance (screening value) (G-361, PLX4720 - 2 uM, ligand 6.25 ng/ml): 1.01
ability of recombinant RTK ligand to confer resistance (screening value) (G-361, PLX4720 - 2 uM, ligand 25 ng/ml): 0.97
ability of recombinant RTK ligand to confer resistance (screening value) (G-361, PLX4720 - 2 uM, ligand 100 ng/ml): 0.98
ability of recombinant RTK ligand to confer resistance (screening value) (SK-MEL-5, PD184352 - 1 uM, ligand 0.4 ng/ml): 0.02
ability of recombinant RTK ligand to confer resistance (screening value) (SK-MEL-5, PD184352 - 1 uM, ligand 1.6 ng/ml): 0.91
ability of recombinant RTK ligand to confer resistance (screening value) (SK-MEL-5, PD184352 - 1 uM, ligand 6.25 ng/ml): 1.06
ability of recombinant RTK ligand to confer resistance (screening value) (SK-MEL-5, PD184352 - 1 uM, ligand 25 ng/ml): 1.02
ability of recombinant RTK ligand to confer resistance (screening value) (SK-MEL-5, PD184352 - 1 uM, ligand 100 ng/ml): 1.14
ability of recombinant RTK ligand to confer resistance (screening value) (SK-MEL-5, PLX4720 - 2 uM, ligand 0.4 ng/ml): 0.93
ability of recombinant RTK ligand to confer resistance (screening value) (SK-MEL-5, PLX4720 - 2 uM, ligand 1.6 ng/ml): 0.90
ability of recombinant RTK ligand to confer resistance (screening value) (SK-MEL-5, PLX4720 - 2 uM, ligand 6.25 ng/ml): 1.01
ability of recombinant RTK ligand to confer resistance (screening value) (SK-MEL-5, PLX4720 - 2 uM, ligand 25 ng/ml): 0.97
ability of recombinant RTK ligand to confer resistance (screening value) (SK-MEL-5, PLX4720 - 2 uM, ligand 100 ng/ml): 1.01
ability of recombinant RTK ligand to confer resistance (screening value) (SK-MEL-28, PD184352 - 1 uM, ligand 0.4 ng/ml): 0.99
ability of recombinant RTK ligand to confer resistance (screening value) (SK-MEL-28, PD184352 - 1 uM, ligand 1.6 ng/ml): 1.18
ability of recombinant RTK ligand to confer resistance (screening value) (SK-MEL-28, PD184352 - 1 uM, ligand 6.25 ng/ml): 0.95
ability of recombinant RTK ligand to confer resistance (screening value) (SK-MEL-28, PD184352 - 1 uM, ligand 25 ng/ml): 1.18
ability of recombinant RTK ligand to confer resistance (screening value) (SK-MEL-28, PD184352 - 1 uM, ligand 100 ng/ml): 1.20
ability of recombinant RTK ligand to confer resistance (screening value) (SK-MEL-28, PLX4720 - 2 uM, ligand 0.4 ng/ml): 1.02
ability of recombinant RTK ligand to confer resistance (screening value) (SK-MEL-28, PLX4720 - 2 uM, ligand 1.6 ng/ml): 1.25
ability of recombinant RTK ligand to confer resistance (screening value) (SK-MEL-28, PLX4720 - 2 uM, ligand 6.25 ng/ml): 0.99
ability of recombinant RTK ligand to confer resistance (screening value) (SK-MEL-28, PLX4720 - 2 uM, ligand 25 ng/ml): 1.15
ability of recombinant RTK ligand to confer resistance (screening value) (SK-MEL-28, PLX4720 - 2 uM, ligand 100 ng/ml): 1.25
